In patent US11136633:
Like-named read-outs stand apart in the source and are kept apart here.

T1: 5T4 (on 5T4-expressing MDA-MB-468 cells) (human, UniProt Q13641 32-420)
T1 sequence (looked up): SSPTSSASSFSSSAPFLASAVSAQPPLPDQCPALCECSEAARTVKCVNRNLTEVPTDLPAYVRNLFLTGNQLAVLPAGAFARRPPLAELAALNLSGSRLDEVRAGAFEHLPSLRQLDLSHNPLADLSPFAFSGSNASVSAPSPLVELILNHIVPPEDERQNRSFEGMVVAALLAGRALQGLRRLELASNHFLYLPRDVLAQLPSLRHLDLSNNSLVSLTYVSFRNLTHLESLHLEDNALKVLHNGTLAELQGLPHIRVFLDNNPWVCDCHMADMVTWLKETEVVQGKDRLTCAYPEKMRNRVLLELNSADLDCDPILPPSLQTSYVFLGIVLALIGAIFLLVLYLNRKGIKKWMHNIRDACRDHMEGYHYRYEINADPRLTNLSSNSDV


Legend:
[1] = molecular target: T1, 5T4 (on 5T4-expressing MDA-MB-468 cells); experiment: cell-based or functional assay
[2] = molecular target: T1, 5T4 (on 5T4-expressing MDA-MB-468 cells); experiment: cellular binding on 5T4-expressing MDA-MB-468 cells
[3] = molecular target: T2, PSMA (on PSMA-expressing LNCaP-C4.2 cells) (human, UniProt Q04609 1-750); experiment: cell-based or functional assay
[4] = molecular target: T2, PSMA (on PSMA-expressing LNCaP-C4.2 …); experiment: cell-based or functional assay; remark: listed apart in the source

T2 sequence (Q04609 whole entry): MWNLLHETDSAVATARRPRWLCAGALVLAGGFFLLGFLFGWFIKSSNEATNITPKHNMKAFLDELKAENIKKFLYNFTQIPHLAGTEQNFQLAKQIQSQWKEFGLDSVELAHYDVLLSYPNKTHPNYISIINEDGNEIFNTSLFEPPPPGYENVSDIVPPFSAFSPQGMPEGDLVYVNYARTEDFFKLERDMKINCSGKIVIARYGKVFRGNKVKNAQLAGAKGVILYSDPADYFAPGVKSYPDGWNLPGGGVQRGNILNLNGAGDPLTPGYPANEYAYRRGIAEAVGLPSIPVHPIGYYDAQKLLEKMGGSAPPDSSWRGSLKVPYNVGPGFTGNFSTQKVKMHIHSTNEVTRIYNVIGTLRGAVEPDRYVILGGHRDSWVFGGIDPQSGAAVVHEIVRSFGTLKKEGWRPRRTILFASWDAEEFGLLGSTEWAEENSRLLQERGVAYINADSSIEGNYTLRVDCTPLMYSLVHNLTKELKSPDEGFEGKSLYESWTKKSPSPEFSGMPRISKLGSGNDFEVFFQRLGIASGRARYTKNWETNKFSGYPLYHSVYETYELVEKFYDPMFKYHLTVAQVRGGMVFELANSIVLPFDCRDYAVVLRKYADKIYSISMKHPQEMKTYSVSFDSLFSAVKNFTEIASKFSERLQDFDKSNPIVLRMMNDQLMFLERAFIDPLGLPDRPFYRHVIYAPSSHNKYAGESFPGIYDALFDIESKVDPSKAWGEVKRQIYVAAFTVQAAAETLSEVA

Binder	% efficacy, in vitro cytotoxicity on MDA-MB-468 at ~100 nM [1] [%]	IC50, in vitro cytotoxicity on 5T4-positive cell line MDA-MB-468 [1] [nM]	further results
H8-HC40, engineered cysteine anti-5T4 (HC S40C) H8 antibody conjugated to vc-seco-DUBA (antibody, human IgG1, kappa, V domains shown, vc-seco-DUBA linker drug on engineered Cys 40; average DAR 1.7) VH: QVQLVQSGAEVKKPGASVKVSCKASGYSFTGYYMHWVKQCPGQGLEWIGRINPNNGVTLYNQKFKDRVTMTRDTSISTAYMELSRLRSDDTAVYYCARSTMITNYVMDYWGQGTLVTVSS VL: DIVMTQSPDSLAVSLGERATINCKASQSVSNDVAWYQQKPGQSPKLLISYTSSRYAGVPDRFSGSGSGTDFTLTISSLQAEDVAVYFCQQDYNSPPTFGGGTKLEIKR	88	0.07	–
wild-type H8 antibody (anti-5T4) (antibody, human IgG1, kappa, V domains shown, Naked antibody, human IgG1 kappa) VH: QVQLVQSGAEVKKPGASVKVSCKASGYSFTGYYMHWVKQSPGQGLEWIGRINPNNGVTLYNQKFKDRVTMTRDTSISTAYMELSRLRSDDTAVYYCARSTMITNYVMDYWGQGTLVTVSS VL: DIVMTQSPDSLAVSLGERATINCKASQSVSNDVAWYQQKPGQSPKLLISYTSSRYAGVPDRFSGSGSGTDFTLTISSLQAEDVAVYFCQQDYNSPPTFGGGTKLEIKR	–	–	binding result [2]: binds
H8-HC41, engineered cysteine anti-5T4 (VH P41C) H8 antibody conjugated to vc-seco-DUBA (antibody, human IgG1, kappa, V domains shown, vc-seco-DUBA linker drug on engineered Cys 41; average DAR 1.7) VH: QVQLVQSGAEVKKPGASVKVSCKASGYSFTGYYMHWVKQSCGQGLEWIGRINPNNGVTLYNQKFKDRVTMTRDTSISTAYMELSRLRSDDTAVYYCARSTMITNYVMDYWGQGTLVTVSS VL: DIVMTQSPDSLAVSLGERATINCKASQSVSNDVAWYQQKPGQSPKLLISYTSSRYAGVPDRFSGSGSGTDFTLTISSLQAEDVAVYFCQQDYNSPPTFGGGTKLEIKR	88	0.07	–
ADC-HC41 (SYD1091), engineered cysteine anti-PSMA (VH S41C) antibody conjugated to vc-seco-DUBA (antibody, human IgG1, kappa, V domains shown, vc-seco-DUBA linker drug on engineered Cys 41 (Kabat numbering); average DAR 1.7) VH: EVQLVQSGAEVKKPGASVKISCKTSGYTFTEYTIHWVKQACGKGLEWIGNINPNNGGTTYNQKFEDRATLTVDKSTSTAYMELSSLRSEDTAVYYCAAGWNFDYWGQGTTVTVSS VL: DIVMTQSPSSLSASVGDRVTITCKASQDVGTAVDWYQQKPGKAPKLLIYWASTRHTGVPDRFTGSGSGTDFTLTISSLQPEDFADYFCQQYNSYPLTFGGGTKLEIKR	–	–	IC50, in vitro cytotoxicity on PSMA-positive cell line LNCaP-C4.2 [3]: 0.25 nM
ADC-HC41 (vc-MMAE), anti-PSMA antibody (HC S41C) conjugated to vc-MMAE (antibody, human IgG1, kappa, V domains shown, vc-MMAE linker drug on engineered Cys 41 (Kabat numbering); average DAR 1.8) VH: EVQLVQSGAEVKKPGASVKISCKTSGYTFTEYTIHWVKQACGKGLEWIGNINPNNGGTTYNQKFEDRATLTVDKSTSTAYMELSSLRSEDTAVYYCAAGWNFDYWGQGTTVTVSS VL: DIVMTQSPSSLSASVGDRVTITCKASQDVGTAVDWYQQKPGKAPKLLIYWASTRHTGVPDRFTGSGSGTDFTLTISSLQPEDFADYFCQQYNSYPLTFGGGTKLEIKR	–	–	IC50, in vitro cytotoxicity on PSMA-positive cell line LNCaP-C4.2 [4]: 0.39 nM
